Where no end group is shown, it is not given here.
Target: T1, CBX1 chromodomain
T1 construct: Chromodomain of Chromobox protein 1 (CBX1); Expression, purification and construct limits are in the Supporting Information; also called Chromobox protein 1
Assay: ITC; CBX1 chromodomain and eIF4A3 K374me0/1/2/3 peptides
Settings: both partners purified

Row | Binder | Kd [µM]
1 | GRSGRYGRKGVAINFVK (also: trimethyllysine at K374) [eIF4A3-K374me3 peptide 13] | 23.2 ± 2
2 | GRSGRYGRKGVAINFVK (also: dimethyllysine at K374) [eIF4A3-K374me2 peptide 23] | 95.2 ± 1.4

Source: PMC10540216, “Activity Guided Azide-methyllysine Photo-trapping for Substrate Profiling of Lysine Demethylases” (Journal of the American Chemical Society, 2023)
